For assay [1], the target named is T1, human α9 integrin (human, UniProt Q13797 30-1035).
T1 sequence: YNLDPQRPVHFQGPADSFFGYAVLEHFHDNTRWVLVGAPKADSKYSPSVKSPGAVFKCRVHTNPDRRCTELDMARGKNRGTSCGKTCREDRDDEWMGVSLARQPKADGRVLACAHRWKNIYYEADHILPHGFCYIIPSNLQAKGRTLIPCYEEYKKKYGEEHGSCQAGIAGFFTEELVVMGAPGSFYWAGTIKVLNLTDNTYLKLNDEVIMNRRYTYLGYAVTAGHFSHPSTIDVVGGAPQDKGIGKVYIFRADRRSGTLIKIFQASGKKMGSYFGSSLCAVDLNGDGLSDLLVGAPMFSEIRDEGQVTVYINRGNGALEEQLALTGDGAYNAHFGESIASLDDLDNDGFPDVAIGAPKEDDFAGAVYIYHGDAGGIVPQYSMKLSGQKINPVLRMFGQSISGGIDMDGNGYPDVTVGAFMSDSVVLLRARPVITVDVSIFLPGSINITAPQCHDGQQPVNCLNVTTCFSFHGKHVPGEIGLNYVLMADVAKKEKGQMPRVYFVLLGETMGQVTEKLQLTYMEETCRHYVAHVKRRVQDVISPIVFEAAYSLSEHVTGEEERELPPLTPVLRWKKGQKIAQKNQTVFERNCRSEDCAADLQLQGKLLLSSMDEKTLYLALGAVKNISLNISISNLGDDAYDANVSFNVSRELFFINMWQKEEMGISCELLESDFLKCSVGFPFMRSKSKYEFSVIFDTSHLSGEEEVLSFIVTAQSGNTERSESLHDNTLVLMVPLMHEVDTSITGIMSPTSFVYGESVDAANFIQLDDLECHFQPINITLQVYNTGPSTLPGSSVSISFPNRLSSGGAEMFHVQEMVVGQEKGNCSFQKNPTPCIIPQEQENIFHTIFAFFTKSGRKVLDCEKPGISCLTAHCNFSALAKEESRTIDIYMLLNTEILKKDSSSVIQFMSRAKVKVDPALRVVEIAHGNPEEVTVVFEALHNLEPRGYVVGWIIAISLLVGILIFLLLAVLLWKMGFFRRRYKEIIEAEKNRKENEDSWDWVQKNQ
The assay is described as follows: cell-based or functional assay.

The target in assay [2] is T2, human α4 integrin (human, UniProt P13612 34-1032).
T2 construct: whole, on cells; Expressed on CHO K1 cells and used as the negative screen for hybridomas; also called CHO K1 cells expressing human α4 integrin
T2 sequence (looked up): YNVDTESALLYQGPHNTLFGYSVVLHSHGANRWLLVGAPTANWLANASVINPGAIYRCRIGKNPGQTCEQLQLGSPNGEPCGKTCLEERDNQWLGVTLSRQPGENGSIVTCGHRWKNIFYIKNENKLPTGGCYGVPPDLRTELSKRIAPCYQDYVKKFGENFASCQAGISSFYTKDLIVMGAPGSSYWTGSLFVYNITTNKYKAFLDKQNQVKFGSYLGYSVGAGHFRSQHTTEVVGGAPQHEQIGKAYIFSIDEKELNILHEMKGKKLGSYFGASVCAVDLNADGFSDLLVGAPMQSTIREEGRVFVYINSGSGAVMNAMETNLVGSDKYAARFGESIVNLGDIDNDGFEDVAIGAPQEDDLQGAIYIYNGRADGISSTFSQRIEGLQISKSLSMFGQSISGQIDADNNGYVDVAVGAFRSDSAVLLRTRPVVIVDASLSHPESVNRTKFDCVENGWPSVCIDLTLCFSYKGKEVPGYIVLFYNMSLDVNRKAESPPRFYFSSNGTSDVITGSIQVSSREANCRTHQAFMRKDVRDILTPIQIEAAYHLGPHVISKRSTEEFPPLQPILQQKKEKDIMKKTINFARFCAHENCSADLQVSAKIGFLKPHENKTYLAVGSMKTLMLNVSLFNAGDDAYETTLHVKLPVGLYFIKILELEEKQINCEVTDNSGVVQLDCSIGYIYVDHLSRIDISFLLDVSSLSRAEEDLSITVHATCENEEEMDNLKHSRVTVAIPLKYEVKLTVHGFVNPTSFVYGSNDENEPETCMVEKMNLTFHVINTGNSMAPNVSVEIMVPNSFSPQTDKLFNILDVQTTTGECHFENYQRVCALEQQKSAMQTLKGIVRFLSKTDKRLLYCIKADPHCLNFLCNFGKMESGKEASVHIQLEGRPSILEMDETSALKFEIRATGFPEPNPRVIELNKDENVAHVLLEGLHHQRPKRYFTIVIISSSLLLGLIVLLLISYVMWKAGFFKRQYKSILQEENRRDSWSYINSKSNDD
The assay can be described thus: hybridoma screening on transfected cells. On the procedure:
Mouse monoclonal antibodies against human α9 integrin were prepared according to the subtractive immunization method (by Williams C. V., et al., 1992, Biotechniques 12:842-847). Briefly, three Balb/c mice were injected intraperitoneally with NIH-3T3 cells expressing human α9 integrin (Human α9/NIH-3T3 cells) at 3×10⁶ per mouse. At one and two weeks after the injection, the mice were injected intraperitoneally with 3×10⁶ cells/mouse of Human α9/NIH-3T3 cells, followed by another intravenous injection of the same cells at 2×10⁶ cell/mouse one week later. Hybridomas were prepared by the methods well known in the art (see, for example, Harlow et al., Antibodies: A Laboratory Manual, (Cold Spring Harbor Laboratory Press, 2nd ed. 1988); Hammerling, et al., in: Monoclonal Antibodies and T-Cell Hybridomas, pp. 563-681 (Elsevier, N.Y., 1981). Hybridoma clones producing monoclonal antibodies that were immunospecifically reactive with Human α9/CHO-K1 cells expressing human α9 integrin and with human melanoma cells endogenously expressing human α9 integrin but not with CHO K1 cells expressing human α4 integrin were established and a hybridoma clone (i.e., K33N) producing monoclonal antibody immunospecifically recognizing human α9 integrin were isolated.

Assay [3] has as its target T1, human α9 integrin. The assay is described as follows: FACS binding assay on CHO/huα9 cells. As to the method:
Mouse K33N antibody was tested at various concentrations, starting at 1.67 μg/ml and serial 3-fold dilutions, for binding to CHO/huα9 cells. Geometric mean channel fluorescence values (MCF; Y-axis) are plotted at each antibody concentration tested (X-axis) in the figure. EC₅₀ values were calculated using GraphPad Prism (GraphPad Software, San Diego, Calif.).
Each antibody was tested at various concentrations, starting at 5 μg/ml and serial 3-fold dilutions, for binding to CHO/huα9 cells. Geometric mean channel fluorescence values (MCF; Y-axis) are plotted at each antibody concentration tested (X-axis) in the figure. EC₅₀ values were calculated using GraphPad Prism (GraphPad Software, San Diego, Calif.).
Binding of mouse, chimeric and humanized K33N antibodies to human α9 integrin was examined in a FACS binding assay with CHO/huα9 cells. Approximately 5×10⁵ CHO/huα9 cells/test were washed with FACS Binding Buffer (PBS containing 0.5% BSA and 0.05% NaN₃) and suspended in 200 μl of FACS Binding Buffer containing various amounts of test antibody. After 30 min on ice, the cells were washed with FACS Binding Buffer. The cells stained with mouse K33N were then suspended in 100 μl of 1/200-diluted FITC-labeled goat anti-mouse IgG polyclonal antibody (SouthernBiotech) in FACS Binding Buffer. The cells stained with chimeric or humanized K33N were suspended in 100 μl of 1/200-diluted FITC-labeled goat anti-human IgG polyclonal antibody (SouthernBiotech) in FACS Binding Buffer. After 30 min on ice, the cells were washed with FACS Binding Buffer, suspended in 200 μl of FACS Binding Buffer, and analyzed using a FACScan flow cytometer (BD Biosciences, Franklin Lakes, N.J.). […] Between ChK33N and HuK33N antibodies, the binding pattern was very similar to each other (FIG. 22).
A general note: In flow cytometry, cells or beads pass a laser one at a time.

4 molecules from patent US20110300139A1 (GENE TECHNO SCIENCE, published 2011) can be followed below.

In the case of “mouse anti human α9 integrin antibody Y9A2”, in assay [1], the IC50 of cell adhesion inhibition (G-361 cells to hTNC (AEIDGIEL)-BSA) was found to be 0.053 µg/mL.

B1: mouse K33N monoclonal antibody (hybridoma FERM BP-10830) (antibody, mouse IgG1, V domains shown)
VH: QVQLQQSGPELVKPGASVKISCKASGYSFTSYYMNWVKKRPGQGLEWIGWIFPGSGNTKYNEKFKGKATLTADTSSSTAYMQVSSLTSEDSAVYFCARSWVSYERGYYFDYWGQGTSLTVSS
VL: DIQMTQSPASLAASVGETVTLTCRASENIYYSLAWYQQKQGKSPQLLIYNANSLEDGVPSRFSGSGSGTQYSMKINSMQPEDTATYFCKQAYDVPYTFGGGTKLEIK
notes: also called mouse K33N antibody
Turning to B1, the binding result in assay [2] was “no binding”. In assay [1], the “IC50 of cell adhesion inhibition (G-361 cells to hTNC (AEIDGIEL)-BSA)” value (“IC50 of cell adhesion inhibition” below) was found to be 0.075 µg/mL. In addition, in assay [3], it took 0.104 µg/mL to reach a half-maximal effect (EC50).

B2: chimeric K33N IgG1/κ antibody (antibody, V domains shown)
VH: QVQLQQSGPELVKPGASVKISCKASGYSFTSYYMNWVKKRPGQGLEWIGWIFPGSGNTKYNEKFKGKATLTADTSSSTAYMQVSSLTSEDSAVYFCARSWVSYERGYYFDYWGQGTSLTVSS
VL: DIQMTQSPASLAASVGETVTLTCRASENIYYSLAWYQQKQGKSPQLLIYNANSLEDGVPSRFSGSGSGTQYSMKINSMQPEDTATYFCKQAYDVPYTFGGGTKLEIK
notes: Mouse K33N variable regions on human gamma-1 and kappa constant regions (vector pChK33N); also called ChK33N
On to B2, for which, in assay [1], the “IC50 of cell adhesion inhibition” value is 0.09 µg/mL. Moreover, the concentration giving a half-maximal response (EC50) – broadly, the concentration giving half of the maximal effect – in assay [3] is 0.143 µg/mL.

B3: humanized K33N IgG1/κ antibody (antibody, V domains shown)
VH: QVQLVQSGAEVKKPGASVKVSCKASGYSFTSYYMNWVRQAPGQRLEWIGWIFPGSGNTKYNEKFKGKATLTADTSASTAYMELSSLRSEDTAVYYCARSWVSYERGYYFDYWGQGTLVTVSS
VL: DIQMTQSPSSLSASVGDRVTITCRASENIYYSLAWYQQKPGKAPKLLIYNANSLEDGVPSRFSGSGSGTQYTLTISSLQPEDFATYYCKQAYDVPYTFGQGTKVEIKR
notes: also called HuK33N
For the molecule B3, in assay [1], the “IC50 of cell adhesion inhibition” value is 0.084 µg/mL. Besides, the 50% effective concentration (EC50) in assay [3] is 0.151 µg/mL.
